The source of these data is US20230212256A1 (University of Texas, published 2023).

Assay [1] concerns the target T1, VGLL1 (Vestigial-like 1) peptide on HLA-A*01:01 (human).
T1 peptide: LSELETPGKY
The assay is described as follows: multimer staining.

Assay [2] addresses T2, HLA-A*0101 (human).
T2 construct: whole, on cells; The peptide was eluted from total HLA class I immunoprecipitated with W6/32; also called HLA-A1; HLAA1
Description: HLA class I immunoprecipitation, acid elution, tandem MS.
Description: Protein A/G Ultralink resin beads were used to immunoprecipate HLA class I molecules and HLA-bound peptides were then eluted with 0.1M acetic acid. HLA-A, B, C isolation was confirmed by Western blot analysis, then HLA-positive elutes were analyzed by tandem mass spectrometry (MS/MS). HLA class I protein recovery was semi-quantitatively assessed by rating Western blot band intensity on a scale from 0 (not detectable) to 4 (highest intensity). Tumor-associated HLA-bound peptides were injected onto HPLC system (Dionex 3000 RSLC), and separated by reverse-phase chromatography in 0.1% formic acid water-acetonitrile on 1.8 μm C18 (Agilent Technologies) in the MS/MS discovery phase. Peptides were analyzed on an Orbitrap Elite mass spectrometer (Thermo-Fisher) using data-dependent acquisition.

B1: VGLL1 TCR #1 (TCR, V domains shown)
Valpha: AQKVTQAQTEISVVEKEDVTLDCVYETRDTTYYLFWYKQPPSGELVFLIRRNSFDEQNEISGRYSWNFQKSTSSFNFTITASQVVDSAVYFCALSPGANSKLTFGKGITLSVRP
Vbeta: DAGVTQSPTHLIKTRGQQVTLRCSPKSGHDTVSWYQQALGQGPQFIFQYYEEEERQRGNFPDRFSGHQFPNYSSELNVNALLLGDSALYLCASSVGTGITEAFFGQGTRLTVV
B1: the binding result in assay [1] was “recognises”.

B2: VGLL1 TCR #2 (TCR, V domains shown)
Valpha: ENVEQHPSTLSVQEGDSAVIKCTYSDSASNYFPWYKQELGKRPQLIIDIRSNVGEKKDQRIAVTLNKTAKHFSLHITETQPEDSAVYFCAARGLTGGGNKLTFGTGTQLKVEL
Vbeta: GVTQSPTHLIKTRGQQVTLRCSPKSGHDTVSWYQQALGQGPQFIFQYYEEEERQRGNFPDRFSGHQFPNYSSELNVNALLLGDSALYLCASSVGTGITEAFFGQGTRLTVV
Take B2: the binding result in assay [1] is “recognises”.

B3: VGLL1 TCR #4 (TCR, V domains shown)
Valpha: QQQVKQSPQSLIVQKGGISIINCAYENTAFDYFPWYQQFPGKGPALLIAIRPDVSEKKEGRFTISFNKSAKQFSLHIMDSQPGDSATYFCAAVRYNFNKFYFGSGTKLNVKP
Vbeta: GVTQSPTHLIKTRGQQVTLRCSPKSGHDTVSWYQQALGQGPQFIFQYYEEEERQRGNFPDRFSGHQFPNYSSELNVNALLLGDSALYLCASSVGTGITEAFFGQGTRLTVV
For B3, in assay [1], the binding result is “recognises”.

B4: VGLL1 TCR #3 (TCR, V domains shown)
Valpha: ENVEQHPSTLSVQEGDSAVIKCTYSDSASNYFPWYKQELGKRPQLIIDIRSNVGEKKDQRIAVTLNKTAKHFSLHITETQPEDSAVYFCAAIPNSGGYQKVTFGIGTKLQVIP
Vbeta: GVTQSPTHLIKTRGQQVTLRCSPKSGHDTVSWYQQALGQGPQFIFQYYEEEERQRGNFPDRFSGHQFPNYSSELNVNALLLGDSALYLCASSVGTGITEAFFGQGTRLTVV
For B4, in assay [1], the binding result is “recognises”.

B5: VGLL1-derived 10-mer peptide LSELETPGKY (peptide)
peptide: LSELETPGKY
notes: This is the native peptide eluted from immunoprecipitated HLA class I. The 13C/15N-lysine labeled synthetic peptide served only as the MS standard; also called VGLL1 231-240 peptide; VGLL1 peptide
Consider B5, for which the binding result in assay [2] is “binds”.
